Three compounds from paper PMC12769810, “Structure and substrate promiscuity of Campylobacter jejuni periplasmic nitrate reductase (Nap) and phylogenetic analysis of Nap homologs” (The Journal of Biological Chemistry, 2025) can be followed below.

For data set [1], the target named is T1, CjNapA (WT NapA) (Campylobacter jejuni, UniProt Q9PPD9).
T1 construct: recombinant catalytic subunit NapA without NapB; native N-terminal TAT signal peptide replaced by that of E. coli; 889 residues modelled by cryo-EM
T1 sequence (Q9PPD9 31-924): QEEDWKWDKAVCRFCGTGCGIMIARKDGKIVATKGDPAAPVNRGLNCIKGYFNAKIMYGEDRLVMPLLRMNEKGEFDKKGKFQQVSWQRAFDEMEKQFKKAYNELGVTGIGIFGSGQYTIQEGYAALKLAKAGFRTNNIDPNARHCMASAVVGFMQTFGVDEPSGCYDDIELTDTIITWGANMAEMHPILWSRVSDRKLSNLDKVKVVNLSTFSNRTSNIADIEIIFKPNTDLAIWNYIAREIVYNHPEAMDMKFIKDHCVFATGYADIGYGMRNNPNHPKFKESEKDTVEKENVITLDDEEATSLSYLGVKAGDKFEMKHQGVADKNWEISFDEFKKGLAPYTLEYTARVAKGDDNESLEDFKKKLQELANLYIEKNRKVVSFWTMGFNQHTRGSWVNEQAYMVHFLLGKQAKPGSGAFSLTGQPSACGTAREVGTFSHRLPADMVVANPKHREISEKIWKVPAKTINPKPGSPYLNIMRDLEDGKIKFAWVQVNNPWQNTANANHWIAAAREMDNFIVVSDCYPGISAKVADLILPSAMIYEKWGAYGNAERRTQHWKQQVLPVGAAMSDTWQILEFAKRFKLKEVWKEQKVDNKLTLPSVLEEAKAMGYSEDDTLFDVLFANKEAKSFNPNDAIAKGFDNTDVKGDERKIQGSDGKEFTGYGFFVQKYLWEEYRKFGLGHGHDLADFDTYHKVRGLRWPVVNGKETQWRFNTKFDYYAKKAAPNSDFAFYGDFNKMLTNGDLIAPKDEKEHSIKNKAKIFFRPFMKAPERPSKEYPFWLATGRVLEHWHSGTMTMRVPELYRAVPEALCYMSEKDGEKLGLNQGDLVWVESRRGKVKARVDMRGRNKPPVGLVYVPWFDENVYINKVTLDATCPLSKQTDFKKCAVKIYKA
In words: cryo-EM structure, […] Å. As to conditions: coordinated by Cys42, Cys45, Cys49, Cys77. It is filed as binding.

Data set [2] concerns the target T1, CjNapA (WT NapA). In words: steady-state nitrate reductase assay, reduced methyl viologen oxidation, double-reciprocal plot. It is filed as biochemical.
In another data set the test system is [O-][Cl+2]([O-])O. Briefly: purified protein. As to conditions: reduced methyl viologen, 50 mM HEPES pH 7, room temperature, argon glove box, 67 nM enzyme. It is filed as biochemical, Campylobacter jejuni.
A further data set relates to [O-][Cl+3]([O-])([O-])O. In words: purified protein. Type of data set: biochemical, Campylobacter jejuni. To be noted: reduced methyl viologen, 50 mM HEPES pH 7, room temperature, argon glove box, 67 nM enzyme, corrected for background oxidation.

For `[S]12[Fe]3[S]4[Fe]1[S]1[Fe]2[S]3[Fe]41` [[4Fe4S] cluster], on CjNapA (WT NapA) [1], the “cryo-EM structure, 3.04 Å” value is “NapA has a [4Fe4S] cluster, which is located closer to the surface of the protein”.
The term Ki denotes a measure of affinity in units of concentration, obtained from inhibition or displacement. A low value points to higher affinity. `[O-][Cl+3]([O-])([O-])O` [perchlorate] gave a Ki on CjNapA (WT NapA) [2] of 4.7 ± 0.3 mM.
As usually defined, the Km is the concentration of substrate that gives half-maximal velocity. As usually defined, the kcat is the number of substrate molecules converted per active site and unit of time at saturation. A word on the kcat/Km: it is the turnover number divided by the Michaelis constant. “CjNapA (WT NapA) (Campylobacter jejuni subsp. jejuni NCTC 11168 = ATCC 700819)”: in data set [O-][Cl+2]([O-])O, the Km is 968 ± 93 µM, the kcat is 2.13 ± 0.04 s⁻¹ and the kcat/Km was 2200 M⁻¹ s⁻¹. Besides, in data set [O-][Cl+3]([O-])([O-])O, the Km worked out at 22.907 ± 3.132 mM, the kcat is 2.52 ± 0.07 s⁻¹ and the kcat/Km amounted to 100 M⁻¹ s⁻¹.
